Laboratory results published in publication doi:10.1101/2020.02.18.954917 (bioRxiv, 2020).

Molecular target: the molecule itself
Test: SEC + AUC

B1: ΔNterm-Them1 (Mus musculus Thioesterase superfamily member 1, thioesterase domains and START domain, residues 43-594) (enzyme, UniProt Q8VHQ9 43-594, looked up)
chain: YRNPTEVQMSQLVLPCHTNHRGELSIGQLLKWIDTTACLSAERHAGCPCVTASMDDIYFDHTISVGQVVNIKAKVNRAFNSSMEVGIQVVSEDLCSEKQWSVCKALATFVAHRELSKVKLKQVIPLTEEEKTEHGVAAERRRMRLVYADTIKDLLTHCVIQDDLDKDCSNMVPAEKTRVESVELVLPPHANHQGNTFGGQIMAWMENVATIAASRLCHAHPTLKAIEMFHFRGPSQVGDRLVLKAIVNNAFKHSMEVGVCVEAYRQEAETQRRHINSAFMTFVVLDKDDQPQKLPWIRPQPGEGERRYREASARKKIRLDRKYLVSCKQAEVALSVPWDPSNQVYLSYYNVSSLKTLMAKDNWVLSVEISEVRLYILEEDFLSFHLEMVVNVDAAQVFQLLSDLRRRPEWDKHYRSVELVQQVDEDDAIYHVISPALSGNTKPQDFVILASRRKPCDNGDPYVIALRSVTLPTHHETPEYQRGETLCSGFCLWREGDQMTKVSYYNQATPGFLNYVTTNVSGLSSEFYNTFKACESFLLDNRNDLAPSLQTL
- stoichiometry N: 3
